Values of other authors as cited in patent US20090004190A1, “Rage Fusion Proteins And Methods Of Use” (priority 2006, published 2009).

Legend:
[1] = assessed by retention of immunoreactivity sRAGE

Substance: human sRAGE: human soluble RAGE (SEQ ID NO: 4)
- half-life [1]: less than 2 hours
- half-life in plasma: about 2 hours
